From US20250059282A1 (University of Texas, published 2025)
Where a chain is given by its changes, count along the chain named. Like-named read-outs stand apart in the source and are kept apart here. Each block holds one binder with its values, some of them ahead of it.

Columns and labels:
[1] = target: T1, Cyno PD-L1-Fc (cynomolgus, UniProt G7PSE7 19-238); assay: ForteBio, IgG, avid
T1 construct: also called cynomolgus PD-L1

[2] = target: T2, Cyno PD-L2-Fc (cynomolgus, UniProt A0A2K5U5Z4 20-220); assay: ForteBio, IgG, avid
T2 construct: also called cynomolgus PD-L2; not shown: Fc
T2 sequence: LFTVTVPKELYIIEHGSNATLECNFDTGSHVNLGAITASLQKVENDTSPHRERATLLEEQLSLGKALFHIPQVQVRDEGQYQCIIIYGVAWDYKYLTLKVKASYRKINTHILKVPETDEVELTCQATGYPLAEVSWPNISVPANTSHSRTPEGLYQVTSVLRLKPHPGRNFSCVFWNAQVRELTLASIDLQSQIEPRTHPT

[3] = target: T3, Mouse PD-L1-Fc (mouse, UniProt Q9EP73 19-239, limits assumed); assay: ForteBio, IgG, avid
T3 construct: also called murine PD-L1; not shown: Fc

[4] = target: T4, Mouse PD-L2-Fc (mouse, UniProt Q9WUL5 20-219, limits assumed); assay: ForteBio, IgG, avid
T4 construct: also called murine PD-L2; not shown: Fc
T4 sequence (looked up): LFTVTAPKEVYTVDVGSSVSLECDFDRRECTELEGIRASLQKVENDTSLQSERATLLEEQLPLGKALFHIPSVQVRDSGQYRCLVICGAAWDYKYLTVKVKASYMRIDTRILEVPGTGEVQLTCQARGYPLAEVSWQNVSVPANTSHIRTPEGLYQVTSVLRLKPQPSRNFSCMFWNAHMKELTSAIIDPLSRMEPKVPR

[5] = target: T5, Human PD-L1-HIS (human, UniProt Q9NZQ7 19-238); assay: ForteBio, IgG, monovalent
T5 construct: also called HIS-tagged monovalent PD-L1; His-tagged human PD-L1; not shown: His tag

[6] = target: T6, Human PD-L2-HIS (human, UniProt Q9BQ51 20-220); assay: ForteBio, IgG, monovalent
T6 construct: also called His-tagged human PD-L2; not shown: His tag
T6 sequence: T2 sequence with A19V, S62P, L67S, I139V, H166P, A178T, Q179H, I194M

[7] = target: human PD-L1 on CHO cells (human, UniProt Q9NZQ7 19-290); assay: cell-based or functional assay
[8] = target: T7, human PD-L2 on CHO cells (human, UniProt Q9BQ51 20-273); assay: cell-based or functional assay
T7 sequence: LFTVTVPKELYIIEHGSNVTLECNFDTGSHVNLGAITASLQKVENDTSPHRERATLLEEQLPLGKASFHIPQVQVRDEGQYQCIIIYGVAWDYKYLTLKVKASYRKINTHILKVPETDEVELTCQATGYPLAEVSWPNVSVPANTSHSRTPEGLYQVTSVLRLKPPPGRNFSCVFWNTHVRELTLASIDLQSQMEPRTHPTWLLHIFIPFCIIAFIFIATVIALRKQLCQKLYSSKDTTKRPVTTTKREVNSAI

[9] = target: T8, Human b-PD-L1-His (human, UniProt Q9NZQ7 19-238, biotinylated (b-); sites not stated); assay: MSD-SET, Fab, monovalent
T8 construct: Antigen of the MSD-SET measurements; also called biotinylated human PD-L1-His; not shown: His tag
Protocol: (§1) Briefly, solution equilibrium titrations (SET) were performed in PBS +0.1% IgG-Free BSA (PBSF) with antigen held constant at 50 pM and incubated with 3- to 5-fold serial dilutions of Fab starting at 20 nM. Antibodies (20 nM in PBS) were coated onto standard bind MSD®-ECL plates overnight at 4° C. or at room temperature for 30 min. Plates were then blocked by BSA for 30 min with shaking at 700 rpm, followed by three washes with wash buffer (PBSF+0.05% Tween 20). SET samples were applied and incubated on the plates for 150 s with shaking at 700 rpm followed by one wash. Antigen captured on a plate was detected with 250 ng/mL sulfotag-labeled streptavidin in PBSF by incubation on the plate for 3 min. The plates were washed three times with wash buffer and then read on the MSD® Sector Imager 2400 instrument using 1× Read Buffer T with surfactant. The percent free antigen was plotted as a function of titrated antibody in Prism and fit to a quadratic equation to extract the KD. To improve throughput, liquid handling robots were used throughout MSD®-SET experiments, including SET sample preparation.

[10] = target: T9, Human b-PD-L2-His (human, UniProt Q9BQ51 20-220, biotinylated (b-); sites not stated); assay: MSD-SET, Fab, monovalent
T9 construct: Antigen of the MSD-SET measurements; also called biotinylated human PD-L2-His; not shown: His tag
T9 sequence: T2 sequence with A19V, S62P, L67S, I139V, H166P, A178T, Q179H, I194M
Protocol: as §1

[11] = target: T8, Human b-PD-L1-His; assay: MSD-SET, Fab, monovalent; remark: listed apart in the source
Protocol: as §1

[12] = target: T9, Human b-PD-L2-His; assay: MSD-SET, Fab, monovalent; remark: listed apart in the source
Protocol: as §1

[13] = target: T10, Human PD-L1-Fc (human, UniProt Q9NZQ7 19-238); assay: ForteBio, Fab, monovalent
T10 construct: also called dimeric PD-L1; PD-L1 (dimeric ligand); not shown: human IgG1 Fc constant region
Protocol: (§2) ForteBio KD measurements—ForteBio affinity measurements were performed on an Octet® RED384 generally as previously described (see, e.g., Estep et al., 2013). Briefly, ForteBio affinity measurements were performed by loading IgGs on-line onto AHQ sensors. Sensors were equilibrated off-line in assay buffer for 30 min and then monitored on-line for 60 seconds for baseline establishment. Sensors with loaded IgGs were exposed to 100 nM antigen for 3 minutes, and afterwards were transferred to assay buffer for 3 min for off-rate measurement. For monovalent affinity assessment Fabs were used instead of IgGs. For this assessment the […] Fc fusion antigen was loaded on-line onto the AHQ sensors. Sensors were equilibrated off-line in assay buffer for 30 min and then monitored on-line for 60 seconds for baseline establishment. Sensors with loaded antigen were exposed to 100 nM Fab for 3 minutes, and afterwards they were transferred to assay buffer for 3 min for off-rate measurement. All kinetics were analyzed using the 1:1 binding model.

[14] = target: T11, Human PD-L2-Fc (human, UniProt Q9BQ51 20-220); assay: ForteBio, Fab, monovalent
T11 construct: also called dimeric PD-L2; PD-L2 (dimeric ligand); not shown: human IgG1 Fc constant region
T11 sequence: T2 sequence with A19V, S62P, L67S, I139V, H166P, A178T, Q179H, I194M
Protocol: as §2

[15] = target: T10, Human PD-L1-Fc; assay: ForteBio Octet, Fab, monovalent
Protocol: as §2

[16] = target: T11, Human PD-L2-Fc; assay: ForteBio Octet, Fab, monovalent
Protocol: as §2

[17] = target: T1, Cyno PD-L1-Fc; assay: ForteBio, IgG, avid; remark: listed apart in the source
[18] = target: T2, Cyno PD-L2-Fc; assay: ForteBio, IgG, avid; remark: listed apart in the source
[19] = target: T3, Mouse PD-L1-Fc; assay: ForteBio, IgG, avid; remark: listed apart in the source
[20] = target: T4, Mouse PD-L2-Fc; assay: ForteBio, IgG, avid; remark: listed apart in the source
[21] = target: T5, Human PD-L1-HIS; assay: ForteBio, IgG, monovalent; remark: listed apart in the source
[22] = target: T6, Human PD-L2-HIS; assay: ForteBio, IgG, monovalent; remark: listed apart in the source

T5 sequence (Q9NZQ7 19-238 limits assumed): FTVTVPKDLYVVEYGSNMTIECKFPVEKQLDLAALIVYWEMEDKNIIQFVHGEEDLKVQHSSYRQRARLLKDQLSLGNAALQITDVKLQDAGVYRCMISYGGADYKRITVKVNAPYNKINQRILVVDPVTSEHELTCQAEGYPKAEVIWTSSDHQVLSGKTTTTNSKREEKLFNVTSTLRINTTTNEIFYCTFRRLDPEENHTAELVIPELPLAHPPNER
T8 sequence (Q9NZQ7 19-238 limits assumed): as above
T10 sequence (Q9NZQ7 19-238 limits assumed): as above
T1 sequence (G7PSE7 entry or part of it limits assumed): as the sequence (Q9NZQ7 19-238 limits assumed) above, with A33T, A34S, S62N, R68Q, Q82R, F173L, T185A, T192I, H215L counted along it
T3 sequence (Q9EP73 19-239 limits assumed): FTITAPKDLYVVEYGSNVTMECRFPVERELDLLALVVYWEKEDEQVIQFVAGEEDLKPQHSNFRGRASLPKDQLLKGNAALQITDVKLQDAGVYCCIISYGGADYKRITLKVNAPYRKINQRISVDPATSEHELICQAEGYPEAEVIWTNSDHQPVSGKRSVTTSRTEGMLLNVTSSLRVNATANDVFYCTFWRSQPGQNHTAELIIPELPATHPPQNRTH
Sequence of human PD-L1 on CHO cells (Q9NZQ7 19-290 limits assumed): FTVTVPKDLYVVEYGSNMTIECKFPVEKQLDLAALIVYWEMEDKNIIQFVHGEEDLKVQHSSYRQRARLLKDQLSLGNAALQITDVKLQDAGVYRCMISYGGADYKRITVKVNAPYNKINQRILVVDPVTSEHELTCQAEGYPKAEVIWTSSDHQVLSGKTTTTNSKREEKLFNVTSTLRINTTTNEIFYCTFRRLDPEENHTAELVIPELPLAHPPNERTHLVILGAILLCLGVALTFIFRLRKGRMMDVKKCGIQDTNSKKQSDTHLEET

B1: BiPDL4-44 (antibody, V domains shown)
VH: QVQLVESGGGVIQPGRSLRLSCAASGFTFSAYLMHWVRQAPGKGLEWVAAIGYDGMNKYYADSVKGRFTISRDNSKNTLYLQMNSLRAEDTAVYYCARAGIEYSYAYTDYWGQGTLVTVSS
VL: EIVLTQSPGTLSLSPGERATLSCRASHSVVSSYLAWYQQKPGQAPRLLIYGASSREDGIPDRFSGSGSGTDFTLTISRLEPEDFAVYYCVQFGWWPPRTFGGGTKVEIK
notes: Fourth generation, IgG
Kd [1]: 555 pM
Kd [2]: 417 pM
Kd [3]: 793 pM
Kd [4]: 4140 pM
Kd [5]: 7890 pM
Kd [6]: 889 pM
EC50 (read off the curve); Fold induction of luciferase, Promega: CHO-PD-L1/PD-L2 dual cells with PD-1 Jurkat reporter cells (PD-L1 and PD-L2 not separable) [7]: ~1000 pM
EC50 (read off the curve); Fold induction of luciferase, Promega: CHO-PD-L1/PD-L2 dual cells with PD-1 Jurkat reporter cells (PD-L1 and PD-L2 not separable) [8]: ~1000 pM

B2: BiPDL4-34 Fab (Fab, V domains shown)
VH: B1 VH
VL: B1 VL with H27Q, S28F, V30Y, Y33D, S54A, E56A, D57A, V90M
notes: Fab made by papain digestion of the IgG
Kd [9]: 960 pM
Kd [10]: 52 pM
Kd [11]: 960 pM
Kd [12]: 52 pM
Kd [13]: 2170 pM
Kd [14]: 560 pM
Kd [15]: 6850 pM
Kd [16]: 560 pM

B4: BiPDL4-24 Fab (Fab, V domains shown)
VH: B1 VH with I12V, S30D, A31E, L33G, A50V, M56L
VL: B1 VL with H27N, S53A, E56A, D57N
notes: as for B2
Kd [12]: 120 pM
Kd [13]: 6570 pM
Kd [14]: 475 pM

B6: BiPDL4-44 Fab (Fab, V domains shown)
VH: B1 VH
VL: B1 VL
notes: as for B2
Kd [12]: 150 pM
Kd [13]: 6000 pM
Kd [14]: 437 pM

B7: BiPDL3-34 (antibody, V domains shown)
VH: QVQLQQWGAGLLKPSETLSLTCAVYGGSLSGYPWSWIRQPPGKGLEWIGETDVSGWTDYNPSLKSRVTISVDTSKNQFSLKLSSVTAADTAVYYCARDGRRMGTPSFDIWGQGTMVTVSS
VL: DIQMTQSPSSVSASVGDRVTITCRASQDISSFLAWYQQKPGKAPKLLIYAASSLQDGVPSRFSGSGSGTDFTLTISSLQPEDFATYYCQKSVYFPPTFGGGTKVEIK
notes: IgG; also called ADI-37468; 37468
Kd [17]: 431 pM
Kd [18]: 677 pM
Kd [19]: 31600 pM
Kd [20]: 484 pM
Kd [21]: 17800 pM
Kd [22]: 844 pM

B9: BiPDL3-13 Fab (Fab, V domains shown)
VH: B7 VH
VL: B7 VL with M4L, D28G, F32W, D56S, K90Q, S91Y
notes: as for B2
Kd [16]: 16000 pM

B10: BiPDL3-44 (antibody, V domains shown)
VH: B7 VH
VL: B7 VL with D28G, S31T, S53A, Q55H, D56S, K90R, S91A
notes: IgG; also called ADI-37475; 37475
Kd [17]: 455 pM
Kd [18]: 603 pM
Kd [19]: 42000 pM
Kd [20]: 552 pM
Kd [21]: 30200 pM
Kd [22]: 1450 pM

Continued, values first:

Kd [1]: 838 pM
Kd [2]: 458 pM
Kd [3]: 677 pM
Kd [4]: 6770 pM
Kd [5]: 7240 pM
Kd [6]: 497 pM
B3: BiPDL4-24 (antibody, V domains shown)
VH: B1 VH with I12V, S30D, A31E, L33G, A50V, M56L
VL: B1 VL with H27N, S53A, E56A, D57N
notes: Fourth generation, IgG

Kd [9]: 120 pM
Kd [10]: 110 pM
Kd [11]: 120 pM
Kd [12]: 110 pM
Kd [13]: 692 pM
Kd [14]: 402 pM
Kd [15]: 2260 pM
Kd [16]: 402 pM
B5: BiPDL4-14 Fab (Fab, V domains shown)
VH: B1 VH with I12V, S30D, A31E, L33G, A50V, M56L
VL: B1 VL with H27Q, S28F, V30Y, Y33D, S54T, E56K, D57T, V90L
notes: as for B2

Kd [17]: 396 pM
Kd [18]: 605 pM
Kd [19]: 2650 pM
Kd [20]: 553 pM
Kd [21]: 13400 pM
Kd [22]: 868 pM
B8: BiPDL3-24 (antibody, V domains shown)
VH: B7 VH
VL: B7 VL with D28G, S31N, D56S, S91A
notes: IgG; also called ADI-37465; 37465
